Measurements from patent US20230220042A1 (SHANGHAI JIAO TONG UNIVERSITY SCHOOL OF MEDICINE, published 2023).

T1: Biotin-FcγRIIB (human FcγRIIB, Sino Biological) (human, UniProt P31994 43-217, limits assumed, biotin-labeled)
T1 construct: Used at 1 µg/ml with Streptavidin-APC for flow cytometry and sorting; also called CD32b
T1 sequence (looked up): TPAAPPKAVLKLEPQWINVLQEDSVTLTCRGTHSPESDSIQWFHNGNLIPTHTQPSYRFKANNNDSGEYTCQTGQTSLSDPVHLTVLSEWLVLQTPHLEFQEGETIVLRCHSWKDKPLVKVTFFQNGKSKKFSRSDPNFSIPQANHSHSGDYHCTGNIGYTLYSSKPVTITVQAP

T2: Biotin-FcγRIIB (human, UniProt P31994 43-217, limits assumed, biotin-labelled)
T2 construct: Bought, biotin-labelled; used at 1 µg/ml for staining and sorting; also called human FcγRIIB; CD32b
T2 sequence (looked up): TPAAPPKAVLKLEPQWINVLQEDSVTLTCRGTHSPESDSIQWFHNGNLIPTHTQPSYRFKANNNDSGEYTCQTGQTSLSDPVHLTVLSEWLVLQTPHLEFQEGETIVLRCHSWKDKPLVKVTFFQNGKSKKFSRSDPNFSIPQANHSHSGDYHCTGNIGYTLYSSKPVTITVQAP


Legend:
[1] = molecular target: T1, Biotin-FcγRIIB (human FcγRIIB, Sino …); assay: NGS after FACS sort of 3T3-displayed Library4 for biotin-FcγRIIB binding
[2] = molecular target: T2, Biotin-FcγRIIB; assay: FACS sorting of displayed Fc library on biotin-FcγRIIB, NGS; reference P271G
[3] = molecular target: T2, Biotin-FcγRIIB; assay: FACS sorting of displayed Fc library on biotin-FcγRIIB, NGS

Row | Binder | Enrichment factor (percentage after sorting/percentage before sorting) [1] | Increased factor (enrichment factor/wild-type enrichment factor) [1] | Increased factor 2 c Site 1 (combined/point mutation) [2] | Enrichment factor (after/before sorting) [3] | Increased factor a (enrichment factor/wild-type enrichment factor) [3]
1 | human IgG2 anti-mouse CD40 surface displayed antibody, L328Y (antibody, name in EU numbering, m1 with this Fc mutation (Eu numbering); copies: 2 + 2) light chain (with the P2A rest): DTVLTQSPALAVSPGERVTISCRASDSVSTLMHWYQQKPGQQPKLLIYLASHLESGVPARFSGSGSGTDFTLTIDPVEADDTATYYCQQSWNDPWTFGGGTKLELKRTVAAPSVFIFPPSDEQLKSGTASVVCLLNNFYPREAKVQWKVDNALQSGNSQESVTEQDSKDSTYSLSSTLTLSKADYEKHKVYACEVTHQGLSSPVTKSFNRGECGSGATNFSLLKQAGDVEENPG heavy chain: EVQLVESDGGLVQPGRSLKLPCAASGFTFSDYYMAWVRQAPTKGLEWVASISYDGSSTYYRDSVKGRFTISRDNAKSTLYLQMDSLRSEDTATYYCGRHSSYFDYWGQGVMVTVSSASTKGPSVFPLAPCSRSTSESTAALGCLVKDYFPEPVTVSWNSGALTSGVHTFPAVLQSSGLYSLSSVVTVPSSNFGTQTYTCNVDHKPSNTKVDKTVERKCCVECPPCPAPPVAGPSVFLFPPKPKDTLMISRTPEVTCVVVDVSHEDPEVQFNWYVDGVEVHNAKTKPREEQFNSTFRVVSVLTVVHQDWLNGKEYKCKVSNKGYPAPIEKTISKTKGQPREPQVYTLPPSREEMTKNQVSLTCLVKGFYPSDIAVEWESNGQPENNYKTTPPMLDSDGSFFLYSKLTVDKSRWQQGNVFSCSVMHEALHNHYTQKSLSLSPGKLEPPPSTVSNMATVAVLVVLGAAIVTGAVVAFVMKMRRRNTGGKGGDYALAPGSQTSDLSLPDCKVMVHDPHSLA | 3.38 | 2.26 |  |  | 
2 | human IgG2 anti-mouse CD40 surface displayed antibody, Fc mutant P271G/P329S (antibody, name in EU numbering, as m1; positions are Eu numbers; copies: 2 + 2) light chain (with the P2A rest): DTVLTQSPALAVSPGERVTISCRASDSVSTLMHWYQQKPGQQPKLLIYLASHLESGVPARFSGSGSGTDFTLTIDPVEADDTATYYCQQSWNDPWTFGGGTKLELKRTVAAPSVFIFPPSDEQLKSGTASVVCLLNNFYPREAKVQWKVDNALQSGNSQESVTEQDSKDSTYSLSSTLTLSKADYEKHKVYACEVTHQGLSSPVTKSFNRGECGSGATNFSLLKQAGDVEENPG heavy chain: EVQLVESDGGLVQPGRSLKLPCAASGFTFSDYYMAWVRQAPTKGLEWVASISYDGSSTYYRDSVKGRFTISRDNAKSTLYLQMDSLRSEDTATYYCGRHSSYFDYWGQGVMVTVSSASTKGPSVFPLAPCSRSTSESTAALGCLVKDYFPEPVTVSWNSGALTSGVHTFPAVLQSSGLYSLSSVVTVPSSNFGTQTYTCNVDHKPSNTKVDKTVERKCCVECPPCPAPPVAGPSVFLFPPKPKDTLMISRTPEVTCVVVDVSHEDGEVQFNWYVDGVEVHNAKTKPREEQFNSTFRVVSVLTVVHQDWLNGKEYKCKVSNKGLSAPIEKTISKTKGQPREPQVYTLPPSREEMTKNQVSLTCLVKGFYPSDIAVEWESNGQPENNYKTTPPMLDSDGSFFLYSKLTVDKSRWQQGNVFSCSVMHEALHNHYTQKSLSLSPGKLEPPPSTVSNMATVAVLVVLGAAIVTGAVVAFVMKMRRRNTGGKGGDYALAPGSQTSDLSLPDCKVMVHDPHSLA |  |  | 13.1 | 46.2 | 61.8
3 | human IgG2 anti-mouse CD40 surface displayed antibody, Fc mutant P271G/P331C (antibody, name in EU numbering, as m1; positions are Eu numbers; copies: 2 + 2) light chain (with the P2A rest): DTVLTQSPALAVSPGERVTISCRASDSVSTLMHWYQQKPGQQPKLLIYLASHLESGVPARFSGSGSGTDFTLTIDPVEADDTATYYCQQSWNDPWTFGGGTKLELKRTVAAPSVFIFPPSDEQLKSGTASVVCLLNNFYPREAKVQWKVDNALQSGNSQESVTEQDSKDSTYSLSSTLTLSKADYEKHKVYACEVTHQGLSSPVTKSFNRGECGSGATNFSLLKQAGDVEENPG heavy chain: EVQLVESDGGLVQPGRSLKLPCAASGFTFSDYYMAWVRQAPTKGLEWVASISYDGSSTYYRDSVKGRFTISRDNAKSTLYLQMDSLRSEDTATYYCGRHSSYFDYWGQGVMVTVSSASTKGPSVFPLAPCSRSTSESTAALGCLVKDYFPEPVTVSWNSGALTSGVHTFPAVLQSSGLYSLSSVVTVPSSNFGTQTYTCNVDHKPSNTKVDKTVERKCCVECPPCPAPPVAGPSVFLFPPKPKDTLMISRTPEVTCVVVDVSHEDGEVQFNWYVDGVEVHNAKTKPREEQFNSTFRVVSVLTVVHQDWLNGKEYKCKVSNKGLPACIEKTISKTKGQPREPQVYTLPPSREEMTKNQVSLTCLVKGFYPSDIAVEWESNGQPENNYKTTPPMLDSDGSFFLYSKLTVDKSRWQQGNVFSCSVMHEALHNHYTQKSLSLSPGKLEPPPSTVSNMATVAVLVVLGAAIVTGAVVAFVMKMRRRNTGGKGGDYALAPGSQTSDLSLPDCKVMVHDPHSLA |  |  | 39.6 | 140 | 187
